One data set relates to bEnd.3 cells. Briefly: Cell viability assay (CellTiter-Blue). The data set is classed as cell-based, murine. The protocol:
bEnd.3 cells were plated in fibronectin precoated 96-well flat-bottom clear black polystyrene plate (Corning, New York, USA) as previously described. Cells were then cultured in complete medium at 37 °C in a 5% CO2 atmosphere, with medium replaced every 2 days. […] Viability was evaluated by the CellTiter-Blue assay (Promega, Wisconsin, USA), based on resazurin reduction into highly fluorescent resorufin by metabolically active cells. By distinguishing metabolic from nonmetabolic cells, cytotoxicity can be indirectly determined. After incubation, cells were washed with PBS, pH 7.4, and 15 μL of CellTiterBlue reagent in 100 μL of complete medium was added to the cells and incubated for 1.5 h at 37 °C in 5% CO2. Fluorescence was measured at 590 nm, with excitation at 560 nm, using an Infinite F200 plate reader (Tecan, Switzerland). Complete medium and medium containing 0.25% Triton X-100 were used as positive and negative controls (100% and 0% viability), respectively. Cell viability (%) was determined using the following equation: [drawing 5] 5 where […] is the fluorescence emission of conjugate-treated cells, Fnontreated is the fluorescence emission of the control nontreated cells, and Fblank is the fluorescent emission of CellTiter reagent in complete medium without cells.
A general note: The colour change of resazurin is a common sign of viable cells or microbes.

A further data set concerns TZM-bl cells. The data set is classed as cell-based. The protocol:
TZM-bl Cell Viability Studies
The cytotoxic effects of each PPC on TZM-bl cell cultures were assessed to ensure that HIV inhibition was a result of the compounds effect on the virus and not on the host cells used in the assay. A resazurin reduction fluorometric assay was performed. Resazurin, the active compound in alamarBlue®, is a blue dye that can be reduced to a pink fluorescent intermediate, resorufin, as a result of cell metabolic activity.6 TZM-bl cells were seeded at 2x10^4 cells/well in tissue culture-treated 96-well microplates and incubated for 24 h. Cells were then incubated with serial dilutions (2-fold) of single peptide and porphyrins, or PPC, for 3 h, after which the mixture was replaced with fresh complete medium. Untreated cells (in the absence of peptide-porphyrin combinations) were used as a control. After 42 h, media was replaced with alamarBlue® reagent and incubated for an additional 3 h. Resazurin reduction was quantified by resorufin fluorescent emission intensity, measured in an Infinite M200 microplate reader. Fluorescence emission intensity was collected at 590 nm, using a fixed λ exc of 560 nm. Excitation and emission slits were 9 and 20 nm, respectively. Cell viability was calculated through the following formalism: […]
where I EI corresponds to the resorufin fluorescence emission intensity in the presence of EIs or combination, I control to the fluorescence emission intensity in the absence of EIs and I background to the background fluorescence emission from the non-reduced […]
P5, P4-MP, MP-L-P3 and P4-L-M - are presented here.
TZM-bl cell viability on the concentration range tested.
(1 picture or pasted object on this page, not shown here)
Figure S7. PPCs cytotoxic effects against TZM-bl cells. A resazurin reduction fluorometric assay, dependent on the cell metabolic activity, was used. Cell viability, normalized to the control in the absence of PPC, was measured against three concentrations of each individual PPC: MP-P3 (black), MP-P5 (white), P4-MP (red), MP-L-P3 (blue) and P4-L-MP (green).

Ends that are not written are not given here.

Substance “MP-P5: mesoporphyrin IX coupled to the N-terminal amino group of peptide P5 (SGTQEEY-amide) ({mesoporphyrin IX}-SGTQEEY-NH2)” had a CC50 in the data set on bEnd.3 cells above 50 µM. The “TZM-bl cell viability (in words)” value in the data set on TZM-bl cells was “did not alter significantly”.

As to “P4-MP: mesoporphyrin IX coupled to the C-terminal Lys side chain of peptide P4 (AGILKRWK-amide) (AGILKRWK(mesoporphyrin IX)-NH2)”, in the data set with bEnd.3 cells, the CC50 is above 50 µM. Moreover, in the data set on TZM-bl cells, the “TZM-bl cell viability (in words)” value is reported as “did not alter significantly”.

A word on the CC50: it is the concentration at which the toxic effect on the cells reaches its halfway point.

Values taken from PMC8485325, “Penetrating the Blood-Brain Barrier with New Peptide–Porphyrin Conjugates Having anti-HIV Activity” (Bioconjugate Chemistry, 2021).
